Test results published in patent publication US20240132578A1.

Experiments:
Assay in all cases: cell-based or functional assay
[1] = target: HIV-1 Env of isolate 92UG024 (clade D pseudovirus) (HIV-1)
[2] = target: HIV-1 Env of pseudovirus MGRM-F1-017 (clade F) (HIV-1)
[3] = target: HIV-1 Env of isolate MGRM-A-003 (clade A pseudovirus) (HIV-1)
[4] = target: HIV-1 Env of isolate MGRM-Chronic-B-001, clade B (HIV-1)
[5] = target: HIV-1 MGRM-AG-005 Env (pseudovirus) (HIV-1)
[6] = target: HIV-1 Env of isolate 94UG103 (Clade A) (HIV-1)
[7] = target: HIV-1 Env of isolate 92RW026 (clade A pseudovirus) (HIV-1)
[8] = target: HIV-1 MGRM-AE-001 Env (pseudovirus) (HIV-1)
[9] = target: HIV-1 Env of isolate TRO.11 (Acute), clade B (HIV-1)
[10] = target: HIV-1 92TH021 envelope (Env) on pseudovirus (HIV-1)
[11] = target: HIV-1 92RW024 envelope glycoprotein (Env) on pseudovirus (HIV-1 (clade A))
[12] = target: HIV-1 envelope glycoprotein (Env) of isolate LAVI_C22 (HIV-1)
[13] = target: HIV-1 Env of isolate CAAN.A2 (Acute), clade B (HIV-1)
[14] = target: HIV-1 MGRM-AG-006 Env (pseudovirus) (HIV-1)
[15] = target: HIV-1 Env of pseudovirus MGRM-F1-014 (clade F) (HIV-1)
[16] = target: HIV-1 Env of isolate 94KE105 (listed under clade A; pseudovirus) (HIV-1)
[17] = target: HIV-1 Env of isolate PVO.4 (Acute), clade B (HIV-1)
[18] = target: HIV-1 Env of isolate MGRM-G-006 (subtype G) (HIV-1)
[19] = target: HIV-1 Env of isolate 92UG024 (HIV-1)
[20] = target: HIV-1 Env of isolate MGRM-C-023 (subtype C), on pseudovirus (HIV-1)
[21] = target: HIV-1 Env of pseudovirus isolate APV-17 (clade B) (HIV-1)
[22] = target: HIV-1 Env of pseudovirus isolate APV-6 (clade B) (HIV-1)
[23] = target: HIV-1 Env of isolate 92UG001 (HIV-1)
[24] = target: HIV-1 Env of isolate MGRM-G-025 (subtype G) (HIV-1)
[25] = target: HIV-1 Env of isolate MG RM-A-009 (pseudovirus) (HIV-1)
[26] = target: HIV-1 Env of isolate 92WR026 (pseudovirus) (HIV-1)
[27] = target: HIV-1 envelope glycoprotein (Env) of isolate MG RM-AG-011 (HIV-1)

4980_N08 (PGT-143) (antibody), sequence (VH): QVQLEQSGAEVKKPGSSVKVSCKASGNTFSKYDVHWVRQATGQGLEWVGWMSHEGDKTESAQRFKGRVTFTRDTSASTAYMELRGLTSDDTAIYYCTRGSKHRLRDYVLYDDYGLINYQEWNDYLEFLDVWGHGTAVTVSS
4980_N08 (PGT-143) (antibody), sequence (VL): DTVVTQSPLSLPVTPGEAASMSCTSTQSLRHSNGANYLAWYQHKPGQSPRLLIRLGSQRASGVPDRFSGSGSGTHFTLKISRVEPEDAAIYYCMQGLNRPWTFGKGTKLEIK
4995_P16 (PGT-145) (antibody), sequence (VH): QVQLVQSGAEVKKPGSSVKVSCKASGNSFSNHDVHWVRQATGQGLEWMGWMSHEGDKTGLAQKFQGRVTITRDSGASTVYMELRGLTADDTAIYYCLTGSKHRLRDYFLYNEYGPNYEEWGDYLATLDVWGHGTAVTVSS
4995_P16 (PGT-145) (antibody), sequence (VL): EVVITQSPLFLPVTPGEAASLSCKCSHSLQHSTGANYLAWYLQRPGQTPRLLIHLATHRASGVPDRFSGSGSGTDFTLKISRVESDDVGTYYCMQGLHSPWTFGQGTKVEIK
4993_K13 (PGT-141) (antibody), sequence (VH): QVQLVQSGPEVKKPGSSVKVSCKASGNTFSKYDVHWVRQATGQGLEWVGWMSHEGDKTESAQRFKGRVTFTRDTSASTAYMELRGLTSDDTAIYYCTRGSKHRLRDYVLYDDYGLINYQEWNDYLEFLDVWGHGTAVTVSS
4993_K13 (PGT-141) (antibody), sequence (VL): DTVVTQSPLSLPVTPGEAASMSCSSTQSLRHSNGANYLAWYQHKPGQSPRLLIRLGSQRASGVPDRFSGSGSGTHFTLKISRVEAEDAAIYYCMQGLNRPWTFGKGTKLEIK
4970_K22 (PGT-144) (antibody), sequence (VH): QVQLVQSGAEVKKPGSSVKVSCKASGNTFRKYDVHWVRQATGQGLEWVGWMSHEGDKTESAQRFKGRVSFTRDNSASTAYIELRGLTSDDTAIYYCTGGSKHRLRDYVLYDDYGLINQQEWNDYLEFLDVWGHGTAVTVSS
4970_K22 (PGT-144) (antibody), sequence (VL): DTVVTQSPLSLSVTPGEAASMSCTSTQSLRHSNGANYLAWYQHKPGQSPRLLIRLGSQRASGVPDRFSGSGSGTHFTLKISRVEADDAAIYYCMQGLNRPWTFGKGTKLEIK
1443_C16 (PG16) (TCN-116) (antibody), sequence (VH): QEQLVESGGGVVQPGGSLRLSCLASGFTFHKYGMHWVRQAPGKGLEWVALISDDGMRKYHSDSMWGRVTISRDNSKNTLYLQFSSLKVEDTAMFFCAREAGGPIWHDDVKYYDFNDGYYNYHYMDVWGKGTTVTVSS
1443_C16 (PG16) (TCN-116) (antibody), sequence (VL): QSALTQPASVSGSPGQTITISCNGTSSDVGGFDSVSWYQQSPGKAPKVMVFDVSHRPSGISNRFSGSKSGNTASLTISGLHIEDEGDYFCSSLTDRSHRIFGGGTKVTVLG
4995_E20 (PGT-142) (antibody), sequence (VH): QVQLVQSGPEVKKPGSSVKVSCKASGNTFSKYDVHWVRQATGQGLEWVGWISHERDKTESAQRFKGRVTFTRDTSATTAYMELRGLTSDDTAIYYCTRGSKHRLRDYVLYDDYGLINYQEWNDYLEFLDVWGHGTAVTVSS

| Substance | IC50, pseudovirus neutralization [1] | IC50 [2] | IC50 (µg/ml), pseudovirus neutralization [3] | IC50 (µg/ml), pseudovirus neutralization [4] | IC50 (µg/ml), pseudovirus neutralization [5] | IC50 (µg/ml), pseudovirus neutralization [7] | IC50 (µg/ml), pseudovirus neutralization [8] | IC50 (µg/ml), pseudovirus neutralization [9] | neutralization IC50 [10] | IC50 (µg/ml), pseudovirus neutralization [11] | IC50 (µg/ml), pseudovirus neutralization [12] | IC50 (µg/ml), pseudovirus neutralization [13] | IC50 (µg/ml), pseudovirus neutralization [14] | IC50 [15] | IC50 (µg/ml), pseudovirus neutralization [16] | IC50 (µg/ml), pseudovirus neutralization [17] | IC50 (µg/mL), pseudovirus neutralization [18] | IC50 (µg/mL), pseudovirus neutralization [19] | IC50, single-round pseudovirus neutralization [20] | IC50, pseudovirus neutralization [21] | further results |
| --- | --- | --- | --- | --- | --- | --- | --- | --- | --- | --- | --- | --- | --- | --- | --- | --- | --- | --- | --- | --- | --- |
| 4E10 (antibody) | 2.17 µg/mL | 4.92 µg/mL | 5.94 µg/mL | 1.46 µg/mL | 2.13 µg/mL | 12.9 µg/mL | 0.85 µg/mL | 1.39 µg/mL | 1.9 µg/mL | 8.88 µg/mL | 2.02 µg/mL | 17.9 µg/mL | 1.76 µg/mL | 7.36 µg/mL | 7.63 µg/mL | 18.3 µg/mL | – | – | – | – | IC90 (neutralization of pseudovirus) [6]: > 50 µg/mL |
| b12 (antibody) | 45.6 µg/mL | > 50 µg/mL | > 50 µg/mL | 0.75 µg/mL | > 50 µg/mL | > 50 µg/mL | 25.9 µg/mL | > 50 µg/mL | 9.99 µg/mL | > 50 µg/mL | 7.64 µg/mL | > 50 µg/mL | > 50 µg/mL | > 50 µg/mL | > 50 µg/mL | > 50 µg/mL | – | – | – | – | IC90 (neutralization of pseudovirus) [6]: 47.3 µg/mL |
| 1495_C14 (PGC14) (antibody) | > 50 µg/mL | > 50 µg/mL | > 50 µg/mL | > 50 µg/mL | > 50 µg/mL | > 50 µg/mL | > 50 µg/mL | > 50 µg/mL | > 50 µg/mL | > 50 µg/mL | 25 µg/mL | > 50 µg/mL | > 50 µg/mL | > 50 µg/mL | > 50 µg/mL | > 50 µg/mL | – | – | – | – | – |
| 2G12 (antibody) | 0.42 µg/mL | > 50 µg/mL | > 50 µg/mL | 0.08 µg/mL | > 50 µg/mL | 17.2 µg/mL | > 50 µg/mL | 0.29 µg/mL | > 50 µg/mL | > 50 µg/mL | > 50 µg/mL | > 50 µg/mL | 3.92 µg/mL | > 50 µg/mL | 7.22 µg/mL | 0.8 µg/mL | – | – | – | – | IC90 (neutralization of pseudovirus) [6]: > 50 µg/mL |
| 2F5 (antibody) | 0.95 µg/mL | > 50 µg/mL | 7.37 µg/mL | 0.55 µg/mL | > 50 µg/mL | 8.63 µg/mL | 0.29 µg/mL | > 50 µg/mL | 1.51 µg/mL | 8.22 µg/mL | > 50 µg/mL | 23.1 µg/mL | 0.85 µg/mL | 15.1 µg/mL | > 50 µg/mL | > 50 µg/mL | – | – | – | – | IC90 (neutralization of pseudovirus) [6]: 46.6 µg/mL |
| 4970_K22 (PGT-144) (antibody) | – | – | – | – | – | – | – | – | – | – | – | – | – | – | – | – | 3.84 µg/mL | > 50 µg/mL | 0.38 µg/mL | 10.3 µg/mL | IC50, pseudovirus neutralization [22]: > 50 µg/mL; IC50 (µg/mL), pseudovirus neutralization [23]: > 50 µg/mL; IC50 (µg/mL), pseudovirus neutralization [24]: > 50 µg/mL; IC50 (µg/mL), single-round pseudovirus neutralization [25]: 2.83 µg/mL; IC50 (µg/mL), single-round pseudovirus neutralization [26]: 32.7 µg/mL |
| 4995_E20 (PGT-142) (antibody) | – | – | – | – | – | – | – | – | – | – | – | – | – | – | – | – | 0.019 µg/mL | > 50 µg/mL | 0.087 µg/mL | 0.628 µg/mL | IC50, pseudovirus neutralization [22]: 4.72 µg/mL; IC50 (µg/mL), pseudovirus neutralization [23]: > 50 µg/mL; IC50 (µg/mL), pseudovirus neutralization [24]: > 50 µg/mL; IC50 (µg/mL), single-round pseudovirus neutralization [25]: 0.058 µg/mL; IC50 (µg/mL), single-round pseudovirus neutralization [26]: 1.78 µg/mL |
| VRC01 (antibody) | – | – | – | – | – | – | – | – | – | – | – | – | – | – | – | – | 0.055 µg/mL | 0.576 µg/mL | 0.077 µg/mL | 0.477 µg/mL | IC50, pseudovirus neutralization [22]: 1.81 µg/mL; IC50 (µg/mL), pseudovirus neutralization [23]: 1.16 µg/mL; IC50 (µg/mL), pseudovirus neutralization [24]: 0.292 µg/mL; IC50 [27]: 0.084 µg/mL; IC50 (µg/mL), single-round pseudovirus neutralization [25]: 0.118 µg/mL |
| 4995_P16 (PGT-145) (antibody) | – | – | – | – | – | – | – | – | – | – | – | – | – | – | – | – | 0.286 µg/mL | 1.6 µg/mL | 0.201 µg/mL | 0.488 µg/mL | IC50, pseudovirus neutralization [22]: 0.104 µg/mL; IC50 (µg/mL), pseudovirus neutralization [23]: > 50 µg/mL; IC50 (µg/mL), pseudovirus neutralization [24]: > 50 µg/mL; IC50 (µg/mL), single-round pseudovirus neutralization [25]: 0.235 µg/mL; IC50 (µg/mL), single-round pseudovirus neutralization [26]: 1.45 µg/mL |
| 4980_N08 (PGT-143) (antibody) | – | – | – | – | – | – | – | – | – | – | – | – | – | – | – | – | 0.031 µg/mL | > 50 µg/mL | 0.148 µg/mL | 1.11 µg/mL | IC50, pseudovirus neutralization [22]: 14 µg/mL; IC50 (µg/mL), pseudovirus neutralization [23]: > 50 µg/mL; IC50 (µg/mL), pseudovirus neutralization [24]: > 50 µg/mL; IC50 (µg/mL), single-round pseudovirus neutralization [25]: 0.05 µg/mL; IC50 (µg/mL), single-round pseudovirus neutralization [26]: 5.36 µg/mL |
| 1443_C16 (PG16) (TCN-116) (antibody) | 24 µg/mL | > 50 µg/mL | 2.65 µg/mL | > 50 µg/mL | > 50 µg/mL | 0.03 µg/mL | 4.33 µg/mL | 0.22 µg/mL | 0.127 µg/mL | 0.08 µg/mL | 0.02 µg/mL | 8.83 µg/mL | > 50 µg/mL | 0.01 µg/mL | 6.13 µg/mL | 5.43 µg/mL | – | – | – | – | IC90 (neutralization of pseudovirus) [6]: 1.59 µg/mL |
| 4993_K13 (PGT-141) (antibody) | – | – | – | – | – | – | – | – | – | – | – | – | – | – | – | – | 0.043 µg/mL | > 50 µg/mL | 0.153 µg/mL | 0.59 µg/mL | IC50, pseudovirus neutralization [22]: 14.2 µg/mL; IC50 (µg/mL), pseudovirus neutralization [23]: > 50 µg/mL; IC50 (µg/mL), pseudovirus neutralization [24]: > 50 µg/mL; IC50 (µg/mL), single-round pseudovirus neutralization [25]: 0.029 µg/mL; IC50 (µg/mL), single-round pseudovirus neutralization [26]: 1.78 µg/mL |
